Test results: article PMC7063449

Target: bril-ACKR3WT (human) (UniProt P25106)
Experiment: flow cytometry on cells

Sequence of bril-ACKR3WT (human) (P25106 2-332): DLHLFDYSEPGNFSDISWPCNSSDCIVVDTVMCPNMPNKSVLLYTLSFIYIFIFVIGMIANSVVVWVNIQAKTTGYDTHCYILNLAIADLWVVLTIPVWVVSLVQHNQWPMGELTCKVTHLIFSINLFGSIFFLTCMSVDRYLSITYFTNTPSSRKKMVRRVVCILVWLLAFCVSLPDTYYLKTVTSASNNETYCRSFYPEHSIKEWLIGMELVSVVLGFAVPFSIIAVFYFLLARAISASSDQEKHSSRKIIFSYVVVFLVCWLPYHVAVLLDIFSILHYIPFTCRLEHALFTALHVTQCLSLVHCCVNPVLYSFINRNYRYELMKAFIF

HA-tagged CXCL12P2G (from UniProt P48061 22-93) (ligand)
dissociative half-life: 7.2 min
